Results on six molecules are retold here after patent US20260001928A1 (CORTERIA PHARMACEUTICALS, priority 2022, published 2026).

The target in one experiment is T1, CRF1R receptor (UniProt P34998 24-415, limits assumed).
T1 sequence (looked up): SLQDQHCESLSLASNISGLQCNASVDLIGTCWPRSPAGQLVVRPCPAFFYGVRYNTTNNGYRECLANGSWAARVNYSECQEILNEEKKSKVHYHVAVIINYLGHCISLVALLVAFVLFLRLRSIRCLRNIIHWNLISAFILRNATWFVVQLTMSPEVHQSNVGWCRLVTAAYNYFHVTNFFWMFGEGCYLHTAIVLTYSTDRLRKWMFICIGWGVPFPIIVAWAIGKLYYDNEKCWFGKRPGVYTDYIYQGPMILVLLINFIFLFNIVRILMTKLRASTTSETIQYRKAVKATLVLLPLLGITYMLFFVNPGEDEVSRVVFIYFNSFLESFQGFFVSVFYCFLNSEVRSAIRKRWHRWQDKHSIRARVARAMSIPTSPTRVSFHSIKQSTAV
Briefly: cell-based or functional assay.

Experiment [1] deals with human corticotropin-releasing factor 2a (CRF2a receptor) (human), Q13324. Kind of experiment: cell-based or functional assay.
Sequence of human corticotropin-releasing factor 2a (CRF2a receptor) (human), Q13324 (Q13324 20-411): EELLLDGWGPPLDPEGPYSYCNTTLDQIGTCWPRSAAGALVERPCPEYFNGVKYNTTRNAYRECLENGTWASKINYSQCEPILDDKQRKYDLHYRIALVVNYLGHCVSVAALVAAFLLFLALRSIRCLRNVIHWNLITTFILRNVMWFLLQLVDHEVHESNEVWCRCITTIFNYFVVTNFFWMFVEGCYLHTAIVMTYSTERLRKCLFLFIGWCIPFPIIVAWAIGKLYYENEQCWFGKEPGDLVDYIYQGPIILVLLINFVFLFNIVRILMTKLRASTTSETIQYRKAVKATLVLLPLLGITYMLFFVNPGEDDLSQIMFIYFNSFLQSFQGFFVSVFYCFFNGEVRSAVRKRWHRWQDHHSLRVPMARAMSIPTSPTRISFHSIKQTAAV

*1 amine or outer side, *2 acyl side, *3 side chain or, on linkers, in order; H or OH if unused. Where no end group is shown, it is not given here. Side-chain parts run from the residue outwards. [ ]: non-standard residue; d: D form. The star is where a group is joined. C18 diacid = O=C(O)CCCCCCCCCCCCCCCCC(=O)*; C16 diacid = O=C(O)CCCCCCCCCCCCCCC(=O)*; γGlu = O=C(O)[C@H](CCC(=O)[*:2])N[*:1]; NMeI = CC[C@H](C)[C@H](NC)C(=O)O; Abu = CC[C@H](N)C(=O)O; Dap = NC[C@H](N)C(=O)O; AEEA = NCCOCCOCC(=O)O; Aib = CC(C)(N)C(=O)O

B1: SEQ ID NO 70 (peptide)
peptide: [NMeI]VLSLD[dV]PIKLK([γGlu-C16 diacid])KILLEQEKQKKQREQAETN[Dap]QILAQV-NH2
modifications: N-terminus assumed
SMILES: CC[C@H](C)[C@H](NC)C(=O)N[C@H](C(=O)N[C@@H](CC(C)C)C(=O)N[C@@H](CO)C(=O)N[C@@H](CC(C)C)C(=O)N[C@@H](CC(=O)O)C(=O)N[C@@H](C(=O)N1CCC[C@H]1C(=O)N[C@H](C(=O)N[C@@H](CCCCN)C(=O)N[C@@H](CC(C)C)C(=O)N[C@@H](CCCCNC(=O)CC[C@H](NC(=O)CCCCCCCCCCCCCCC(=O)O)C(=O)O)C(=O)N[C@@H](CCCCN)C(=O)N[C@H](C(=O)N[C@@H](CC(C)C)C(=O)N[C@@H](CC(C)C)C(=O)N[C@@H](CCC(=O)O)C(=O)N[C@@H](CCC(N)=O)C(=O)N[C@@H](CCC(=O)O)C(=O)N[C@@H](CCCCN)C(=O)N[C@@H](CCC(N)=O)C(=O)N[C@@H](CCCCN)C(=O)N[C@@H](CCCCN)C(=O)N[C@@H](CCC(N)=O)C(=O)N[C@@H](CCCNC(=N)N)C(=O)N[C@@H](CCC(=O)O)C(=O)N[C@@H](CCC(N)=O)C(=O)N[C@@H](C)C(=O)N[C@@H](CCC(=O)O)C(=O)N[C@H](C(=O)N[C@@H](CC(N)=O)C(=O)N[C@@H](CN)C(=O)N[C@@H](CCC(N)=O)C(=O)N[C@H](C(=O)N[C@@H](CC(C)C)C(=O)N[C@@H](C)C(=O)N[C@@H](CCC(N)=O)C(=O)N[C@H](C(N)=O)C(C)C)[C@@H](C)CC)[C@@H](C)O)[C@@H](C)CC)[C@@H](C)CC)C(C)C)C(C)C
As for B1, in the experiment with CRF1R receptor, the “Emax (% I)” value was found to be 0%. The molecule further yielded an EC50 [nM] (cAMP) in experiment [1] of 0.17 nM.

B2: SEQ ID NO 130 (peptide)
peptide: Ac-IVLSLD[dV]PIKLK([γGlu-C18 diacid])KILLEQEKQKKQREQAETNEQILAQV-NH2
SMILES: CC[C@H](C)[C@H](NC(C)=O)C(=O)N[C@H](C(=O)N[C@@H](CC(C)C)C(=O)N[C@@H](CO)C(=O)N[C@@H](CC(C)C)C(=O)N[C@@H](CC(=O)O)C(=O)N[C@@H](C(=O)N1CCC[C@H]1C(=O)N[C@H](C(=O)N[C@@H](CCCCN)C(=O)N[C@@H](CC(C)C)C(=O)N[C@@H](CCCCNC(=O)CC[C@H](NC(=O)CCCCCCCCCCCCCCCCC(=O)O)C(=O)O)C(=O)N[C@@H](CCCCN)C(=O)N[C@H](C(=O)N[C@@H](CC(C)C)C(=O)N[C@@H](CC(C)C)C(=O)N[C@@H](CCC(=O)O)C(=O)N[C@@H](CCC(N)=O)C(=O)N[C@@H](CCC(=O)O)C(=O)N[C@@H](CCCCN)C(=O)N[C@@H](CCC(N)=O)C(=O)N[C@@H](CCCCN)C(=O)N[C@@H](CCCCN)C(=O)N[C@@H](CCC(N)=O)C(=O)N[C@@H](CCCNC(=N)N)C(=O)N[C@@H](CCC(=O)O)C(=O)N[C@@H](CCC(N)=O)C(=O)N[C@@H](C)C(=O)N[C@@H](CCC(=O)O)C(=O)N[C@H](C(=O)N[C@@H](CC(N)=O)C(=O)N[C@@H](CCC(=O)O)C(=O)N[C@@H](CCC(N)=O)C(=O)N[C@H](C(=O)N[C@@H](CC(C)C)C(=O)N[C@@H](C)C(=O)N[C@@H](CCC(N)=O)C(=O)N[C@H](C(N)=O)C(C)C)[C@@H](C)CC)[C@@H](C)O)[C@@H](C)CC)[C@@H](C)CC)C(C)C)C(C)C
As for B2, the “Emax (% I)” value with CRF1R receptor came out at 4%. The EC50 [nM] (cAMP) in experiment [1] turned out to be 0.08 nM.

B3: SEQ ID NO 137 (peptide)
peptide: [NMeI]VLSLD[dV]PIKLK([γGlu-C18 diacid])KILLEQEKQKKQREQAETN[Aib]QILAQV-NH2
modifications: N-terminus assumed
SMILES: CC[C@H](C)[C@H](NC)C(=O)N[C@H](C(=O)N[C@@H](CC(C)C)C(=O)N[C@@H](CO)C(=O)N[C@@H](CC(C)C)C(=O)N[C@@H](CC(=O)O)C(=O)N[C@@H](C(=O)N1CCC[C@H]1C(=O)N[C@H](C(=O)N[C@@H](CCCCN)C(=O)N[C@@H](CC(C)C)C(=O)N[C@@H](CCCCNC(=O)CC[C@H](NC(=O)CCCCCCCCCCCCCCCCC(=O)O)C(=O)O)C(=O)N[C@@H](CCCCN)C(=O)N[C@H](C(=O)N[C@@H](CC(C)C)C(=O)N[C@@H](CC(C)C)C(=O)N[C@@H](CCC(=O)O)C(=O)N[C@@H](CCC(N)=O)C(=O)N[C@@H](CCC(=O)O)C(=O)N[C@@H](CCCCN)C(=O)N[C@@H](CCC(N)=O)C(=O)N[C@@H](CCCCN)C(=O)N[C@@H](CCCCN)C(=O)N[C@@H](CCC(N)=O)C(=O)N[C@@H](CCCNC(=N)N)C(=O)N[C@@H](CCC(=O)O)C(=O)N[C@@H](CCC(N)=O)C(=O)N[C@@H](C)C(=O)N[C@@H](CCC(=O)O)C(=O)N[C@H](C(=O)N[C@@H](CC(N)=O)C(=O)NC(C)(C)C(=O)N[C@@H](CCC(N)=O)C(=O)N[C@H](C(=O)N[C@@H](CC(C)C)C(=O)N[C@@H](C)C(=O)N[C@@H](CCC(N)=O)C(=O)N[C@H](C(N)=O)C(C)C)[C@@H](C)CC)[C@@H](C)O)[C@@H](C)CC)[C@@H](C)CC)C(C)C)C(C)C
Turning to B3, the “Emax (% I)” value with CRF1R receptor was determined as 9%. In experiment [1], the EC50 [nM] (cAMP) amounted to 0.07 nM.

B4: SEQ ID NO 69 (peptide)
peptide: [NMeI]VLSLD[dV]PIKLK([γGlu-C16 diacid])KILLEQEKQKKQREQAETN[Abu]QILAQV-NH2
modifications: N-terminus assumed
SMILES: CC[C@H](NC(=O)[C@H](CC(N)=O)NC(=O)[C@@H](NC(=O)[C@H](CCC(=O)O)NC(=O)[C@H](C)NC(=O)[C@H](CCC(N)=O)NC(=O)[C@H](CCC(=O)O)NC(=O)[C@H](CCCNC(=N)N)NC(=O)[C@H](CCC(N)=O)NC(=O)[C@H](CCCCN)NC(=O)[C@H](CCCCN)NC(=O)[C@H](CCC(N)=O)NC(=O)[C@H](CCCCN)NC(=O)[C@H](CCC(=O)O)NC(=O)[C@H](CCC(N)=O)NC(=O)[C@H](CCC(=O)O)NC(=O)[C@H](CC(C)C)NC(=O)[C@H](CC(C)C)NC(=O)[C@@H](NC(=O)[C@H](CCCCN)NC(=O)[C@H](CCCCNC(=O)CC[C@H](NC(=O)CCCCCCCCCCCCCCC(=O)O)C(=O)O)NC(=O)[C@H](CC(C)C)NC(=O)[C@H](CCCCN)NC(=O)[C@@H](NC(=O)[C@@H]1CCCN1C(=O)[C@H](NC(=O)[C@H](CC(=O)O)NC(=O)[C@H](CC(C)C)NC(=O)[C@H](CO)NC(=O)[C@H](CC(C)C)NC(=O)[C@@H](NC(=O)[C@@H](NC)[C@@H](C)CC)C(C)C)C(C)C)[C@@H](C)CC)[C@@H](C)CC)[C@@H](C)O)C(=O)N[C@@H](CCC(N)=O)C(=O)N[C@H](C(=O)N[C@@H](CC(C)C)C(=O)N[C@@H](C)C(=O)N[C@@H](CCC(N)=O)C(=O)N[C@H](C(N)=O)C(C)C)[C@@H](C)CC
Take B4: in the experiment with CRF1R receptor, the “Emax (% I)” value is 3%. Further, the EC50 [nM] (cAMP) in experiment [1] came out at 0.09 nM.

B5: SEQ ID NO 115 (peptide)
peptide: [NMeI]VLSLD[dV]PIKLK([AEEA-AEEA-γGlu-C18 diacid])KILLEQEKQKKQREQAETN[Dap]QILAQV-NH2
modifications: N-terminus assumed
SMILES: CC[C@H](C)[C@H](NC)C(=O)N[C@H](C(=O)N[C@@H](CC(C)C)C(=O)N[C@@H](CO)C(=O)N[C@@H](CC(C)C)C(=O)N[C@@H](CC(=O)O)C(=O)N[C@@H](C(=O)N1CCC[C@H]1C(=O)N[C@H](C(=O)N[C@@H](CCCCN)C(=O)N[C@@H](CC(C)C)C(=O)N[C@@H](CCCCNC(=O)COCCOCCNC(=O)COCCOCCNC(=O)CC[C@H](NC(=O)CCCCCCCCCCCCCCCCC(=O)O)C(=O)O)C(=O)N[C@@H](CCCCN)C(=O)N[C@H](C(=O)N[C@@H](CC(C)C)C(=O)N[C@@H](CC(C)C)C(=O)N[C@@H](CCC(=O)O)C(=O)N[C@@H](CCC(N)=O)C(=O)N[C@@H](CCC(=O)O)C(=O)N[C@@H](CCCCN)C(=O)N[C@@H](CCC(N)=O)C(=O)N[C@@H](CCCCN)C(=O)N[C@@H](CCCCN)C(=O)N[C@@H](CCC(N)=O)C(=O)N[C@@H](CCCNC(=N)N)C(=O)N[C@@H](CCC(=O)O)C(=O)N[C@@H](CCC(N)=O)C(=O)N[C@@H](C)C(=O)N[C@@H](CCC(=O)O)C(=O)N[C@H](C(=O)N[C@@H](CC(N)=O)C(=O)N[C@@H](CN)C(=O)N[C@@H](CCC(N)=O)C(=O)N[C@H](C(=O)N[C@@H](CC(C)C)C(=O)N[C@@H](C)C(=O)N[C@@H](CCC(N)=O)C(=O)N[C@H](C(N)=O)C(C)C)[C@@H](C)CC)[C@@H](C)O)[C@@H](C)CC)[C@@H](C)CC)C(C)C)C(C)C
As to B5, the “Emax (% I)” value in the experiment with CRF1R receptor was determined as 4%. In experiment [1], this molecule had an EC50 [nM] (cAMP) of 0.76 nM.

B6: SEQ ID NO 128 (peptide)
peptide: Ac-IVLSLD[dV]PIKLK([γGlu-C18 diacid])KILLEQEKQKKQREQAETN[Dap]QILAQV-NH2
SMILES: CC[C@H](C)[C@H](NC(C)=O)C(=O)N[C@H](C(=O)N[C@@H](CC(C)C)C(=O)N[C@@H](CO)C(=O)N[C@@H](CC(C)C)C(=O)N[C@@H](CC(=O)O)C(=O)N[C@@H](C(=O)N1CCC[C@H]1C(=O)N[C@H](C(=O)N[C@@H](CCCCN)C(=O)N[C@@H](CC(C)C)C(=O)N[C@@H](CCCCNC(=O)CC[C@H](NC(=O)CCCCCCCCCCCCCCCCC(=O)O)C(=O)O)C(=O)N[C@@H](CCCCN)C(=O)N[C@H](C(=O)N[C@@H](CC(C)C)C(=O)N[C@@H](CC(C)C)C(=O)N[C@@H](CCC(=O)O)C(=O)N[C@@H](CCC(N)=O)C(=O)N[C@@H](CCC(=O)O)C(=O)N[C@@H](CCCCN)C(=O)N[C@@H](CCC(N)=O)C(=O)N[C@@H](CCCCN)C(=O)N[C@@H](CCCCN)C(=O)N[C@@H](CCC(N)=O)C(=O)N[C@@H](CCCNC(=N)N)C(=O)N[C@@H](CCC(=O)O)C(=O)N[C@@H](CCC(N)=O)C(=O)N[C@@H](C)C(=O)N[C@@H](CCC(=O)O)C(=O)N[C@H](C(=O)N[C@@H](CC(N)=O)C(=O)N[C@@H](CN)C(=O)N[C@@H](CCC(N)=O)C(=O)N[C@H](C(=O)N[C@@H](CC(C)C)C(=O)N[C@@H](C)C(=O)N[C@@H](CCC(N)=O)C(=O)N[C@H](C(N)=O)C(C)C)[C@@H](C)CC)[C@@H](C)O)[C@@H](C)CC)[C@@H](C)CC)C(C)C)C(C)C
B6: in the experiment with CRF1R receptor, the “Emax (% I)” value came to 10%. Also, the EC50 [nM] (cAMP) in experiment [1] stood at 0.17 nM.
